The numbers were not newly measured in patent US20180071407A9, “SYSTEMS AND METHODS FOR INTRA-TARGET MICRODOSING (ITM)” (priority 2013, published 2018), which cites them from elsewhere.

The conditions of the data set: known value used to choose sampling time points; cited from earlier work.

On to insulin, for which the half-life of insulin was 4 to 6 min.
